The values below come from the supplement of paper PMC9112550, “Optimization of the antimicrobial peptide Bac7 by deep mutational scanning” (BMC Biology, 2022).
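Also: peptides expressed intracellularly from a pBAD plasmid library in pooled LB shake-flask culture, induced with 0.3% L-arabinose, DNA abundance read by NGS, three biological replicates, DESeq2 with apeglm shrinkage.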

This data set relates to Escherichia coli TOP10. In words: shrunken log2 fold change of peptide-encoding DNA abundance (4.5 h post-induction vs induction); higher = less antimicrobial activity (less host growth inhibition). The conditions noted are these: time post-induction: 4.5 h; library: site-saturation at positions 5, 18, 19, 20.
On to RRIRFRPPRLPRPRPRPKGWPRP, for which the “shrunken log2 fold change” value was 0.589.

Take RRIRCRPPRLPRPRPRPRHHPRP: the “shrunken log2 fold change” value is -0.088.

With RRIRFRPPRLPRPRPRPPQNPRP, the “shrunken log2 fold change” value came to 0.536.

RRIRHRPPRLPRPRPRPDFHPRP: the “shrunken log2 fold change” value is -0.769.

Regarding RRIRARPPRLPRPRPRPPGWPRP, the “shrunken log2 fold change” value amounted to 1.22.

Consider RRIRLRPPRLPRPRPRPWHNPRP, for which the “shrunken log2 fold change” value is -0.00136.

On to RRIRERPPRLPRPRPRPKGKPRP, for which the “shrunken log2 fold change” value is -0.0014.

For the sequence RRIRSRPPRLPRPRPRPCVWPRP, the “shrunken log2 fold change” value was 0.8.

Consider RRIRKRPPRLPRPRPRPNEDPRP, for which the “shrunken log2 fold change” value is -0.00122.

As for RRIRVRPPRLPRPRPRPGIHPRP, the “shrunken log2 fold change” value is -0.118.

Regarding RRIRWRPPRLPRPRPRPWYNPRP, the “shrunken log2 fold change” value was -0.119.

On to RRIRQRPPRLPRPRPRPMNKPRP, for which the “shrunken log2 fold change” value is -0.169.

Regarding RRIRQRPPRLPRPRPRPSVYPRP, the “shrunken log2 fold change” value was -0.643.

Turning to RRIRDRPPRLPRPRPRPRHDPRP, the “shrunken log2 fold change” value was found to be 0.0894.

In the case of RRIRNRPPRLPRPRPRPSRWPRP, the “shrunken log2 fold change” value is 0.417.

For RRIRVRPPRLPRPRPRPSNNPRP, the “shrunken log2 fold change” value was -0.662.

Consider RRIRMRPPRLPRPRPRPGFGPRP, for which the “shrunken log2 fold change” value came out at 0.904.

Take RRIRCRPPRLPRPRPRPKHDPRP: the “shrunken log2 fold change” value was -0.0567.

As to RRIRHRPPRLPRPRPRPSLQPRP, the “shrunken log2 fold change” value was -0.0974.

Regarding RRIRQRPPRLPRPRPRPISPPRP, the “shrunken log2 fold change” value is -0.0311.

Turning to RRIRVRPPRLPRPRPRPTQYPRP, the “shrunken log2 fold change” value turned out to be 0.166.

RRIRYRPPRLPRPRPRPHILPRP: the “shrunken log2 fold change” value was -0.288.

As to RRIRPRPPRLPRPRPRPKDIPRP, the “shrunken log2 fold change” value was -0.801.

On to RRIRARPPRLPRPRPRPLEAPRP, for which the “shrunken log2 fold change” value is 1.21.

On to RRIRCRPPRLPRPRPRPYFQPRP, for which the “shrunken log2 fold change” value is -0.846.

With RRIRVRPPRLPRPRPRPTTTPRP, the “shrunken log2 fold change” value amounted to 0.1.

Consider RRIRWRPPRLPRPRPRPRQIPRP, for which the “shrunken log2 fold change” value was 0.459.

With RRIRHRPPRLPRPRPRPHSVPRP, the “shrunken log2 fold change” value was -0.0237.

For RRIRKRPPRLPRPRPRPNPYPRP, the “shrunken log2 fold change” value was -0.384.

Regarding RRIRNRPPRLPRPRPRPRWRPRP, the “shrunken log2 fold change” value is 0.623.

For the sequence RRIRLRPPRLPRPRPRPRKRPRP, the “shrunken log2 fold change” value turned out to be 0.314.

For the sequence RRIRHRPPRLPRPRPRPCTQPRP, the “shrunken log2 fold change” value was -0.367.

For RRIRHRPPRLPRPRPRPDYMPRP, the “shrunken log2 fold change” value is -0.336.

In the case of RRIRFRPPRLPRPRPRPPAHPRP, the “shrunken log2 fold change” value stood at 0.613.

On to RRIRCRPPRLPRPRPRPGQLPRP, for which the “shrunken log2 fold change” value is -0.00796.

In the case of RRIRSRPPRLPRPRPRPTPTPRP, the “shrunken log2 fold change” value was determined as 0.676.

Consider RRIRQRPPRLPRPRPRPLEFPRP, for which the “shrunken log2 fold change” value is 0.052.

In the case of RRIRVRPPRLPRPRPRPPPNPRP, the “shrunken log2 fold change” value came to 0.73.

With RRIRQRPPRLPRPRPRPGPQPRP, the “shrunken log2 fold change” value is 0.722.

Regarding RRIRQRPPRLPRPRPRPREPPRP, the “shrunken log2 fold change” value was determined as 0.0406.

As for RRIRSRPPRLPRPRPRPCNCPRP, the “shrunken log2 fold change” value was 0.0508.

Take RRIRRRPPRLPRPRPRPKKNPRP: the “shrunken log2 fold change” value was found to be 0.496.

On to RRIRNRPPRLPRPRPRPMFAPRP, for which the “shrunken log2 fold change” value was -0.239.

For RRIRYRPPRLPRPRPRPPKIPRP, the “shrunken log2 fold change” value came to 0.152.

In the case of RRIRFRPPRLPRPRPRPATSPRP, the “shrunken log2 fold change” value worked out at 0.0918.

RRIRERPPRLPRPRPRPNEKPRP: the “shrunken log2 fold change” value is -0.0183.

Take RRIRYRPPRLPRPRPRPCLNPRP: the “shrunken log2 fold change” value is -0.216.

With RRIRWRPPRLPRPRPRPHLSPRP, the “shrunken log2 fold change” value was -0.154.

Take RRIRRRPPRLPRPRPRPYNVPRP: the “shrunken log2 fold change” value is -0.181.

As to RRIRFRPPRLPRPRPRPIQHPRP, the “shrunken log2 fold change” value is -0.196.

On to RRIRMRPPRLPRPRPRPMTVPRP, for which the “shrunken log2 fold change” value worked out at 0.0944.

Turning to RRIRMRPPRLPRPRPRPTMEPRP, the “shrunken log2 fold change” value is 0.868.

As to RRIRVRPPRLPRPRPRPTSHPRP, the “shrunken log2 fold change” value was -0.139.

RRIRGRPPRLPRPRPRPGSCPRP: the “shrunken log2 fold change” value was found to be 1.03.

For RRIRIRPPRLPRPRPRPVSWPRP, the “shrunken log2 fold change” value was -0.171.

On to RRIRRRPPRLPRPRPRPWPGPRP, for which the “shrunken log2 fold change” value is 0.287.

Consider RRIRWRPPRLPRPRPRPQLAPRP, for which the “shrunken log2 fold change” value was 0.351.

As for RRIRFRPPRLPRPRPRPNYEPRP, the “shrunken log2 fold change” value was -0.774.

For the sequence RRIRRRPPRLPRPRPRPNQCPRP, the “shrunken log2 fold change” value is -0.0957.

For RRIRNRPPRLPRPRPRPTHFPRP, the “shrunken log2 fold change” value is -0.659.

In the case of RRIRNRPPRLPRPRPRPAPPPRP, the “shrunken log2 fold change” value was 0.584.

As to RRIRRRPPRLPRPRPRPENMPRP, the “shrunken log2 fold change” value was found to be 0.0592.

As for RRIRTRPPRLPRPRPRPYFVPRP, the “shrunken log2 fold change” value was -0.258.

In the case of RRIRLRPPRLPRPRPRPLICPRP, the “shrunken log2 fold change” value came out at 0.128.

RRIRWRPPRLPRPRPRPPLTPRP: the “shrunken log2 fold change” value came to 0.432.

As to RRIRGRPPRLPRPRPRPIANPRP, the “shrunken log2 fold change” value is 0.42.

For RRIRFRPPRLPRPRPRPITPPRP, the “shrunken log2 fold change” value was -0.128.

For the sequence RRIRWRPPRLPRPRPRPTASPRP, the “shrunken log2 fold change” value worked out at 0.977.

As for RRIRARPPRLPRPRPRPADRPRP, the “shrunken log2 fold change” value was found to be 0.256.

With RRIRLRPPRLPRPRPRPIKAPRP, the “shrunken log2 fold change” value was -0.0378.

For RRIRHRPPRLPRPRPRPYILPRP, the “shrunken log2 fold change” value is -0.576.

With RRIRARPPRLPRPRPRPPKWPRP, the “shrunken log2 fold change” value is 0.732.

RRIRKRPPRLPRPRPRPQFLPRP: the “shrunken log2 fold change” value worked out at 0.0482.

Regarding RRIRYRPPRLPRPRPRPQHPPRP, the “shrunken log2 fold change” value was -0.595.

Turning to RRIRKRPPRLPRPRPRPFWHPRP, the “shrunken log2 fold change” value was 0.00192.

In the case of RRIRMRPPRLPRPRPRPALLPRP, the “shrunken log2 fold change” value worked out at 0.727.

Take RRIRSRPPRLPRPRPRPQYIPRP: the “shrunken log2 fold change” value is -0.206.

With RRIRSRPPRLPRPRPRPAYDPRP, the “shrunken log2 fold change” value was -0.477.

Regarding RRIRMRPPRLPRPRPRPFERPRP, the “shrunken log2 fold change” value was 0.122.

Regarding RRIRGRPPRLPRPRPRPRKYPRP, the “shrunken log2 fold change” value amounted to 0.0397.

Regarding RRIRMRPPRLPRPRPRPQPPPRP, the “shrunken log2 fold change” value is 1.18.

Turning to RRIRRRPPRLPRPRPRPNVEPRP, the “shrunken log2 fold change” value came out at 0.318.

In the case of RRIRDRPPRLPRPRPRPEARPRP, the “shrunken log2 fold change” value came out at 1.96.

On to RRIRHRPPRLPRPRPRPVPQPRP, for which the “shrunken log2 fold change” value is -0.0725.

As for RRIRARPPRLPRPRPRPAPGPRP, the “shrunken log2 fold change” value is 0.972.

On to RRIRMRPPRLPRPRPRPIRTPRP, for which the “shrunken log2 fold change” value is -0.0696.

Regarding RRIRGRPPRLPRPRPRPEMKPRP, the “shrunken log2 fold change” value was 0.73.

As to RRIRMRPPRLPRPRPRPTVPPRP, the “shrunken log2 fold change” value turned out to be 0.388.

On to RRIRDRPPRLPRPRPRPHLYPRP, for which the “shrunken log2 fold change” value is 0.0039.

In the case of RRIRGRPPRLPRPRPRPMTRPRP, the “shrunken log2 fold change” value stood at 0.519.

On to RRIRWRPPRLPRPRPRPETNPRP, for which the “shrunken log2 fold change” value turned out to be 0.187.

Take RRIRTRPPRLPRPRPRPKYGPRP: the “shrunken log2 fold change” value is -0.0738.

Consider RRIRPRPPRLPRPRPRPGSYPRP, for which the “shrunken log2 fold change” value came out at 0.0254.

In the case of RRIRQRPPRLPRPRPRPWYDPRP, the “shrunken log2 fold change” value is -0.138.

For the sequence RRIRSRPPRLPRPRPRPHLCPRP, the “shrunken log2 fold change” value is -0.121.

Regarding RRIRIRPPRLPRPRPRPGNDPRP, the “shrunken log2 fold change” value is -0.0662.

As to RRIRSRPPRLPRPRPRPHDWPRP, the “shrunken log2 fold change” value was -0.323.

For RRIRQRPPRLPRPRPRPHANPRP, the “shrunken log2 fold change” value is -0.671.

For RRIRGRPPRLPRPRPRPIAAPRP, the “shrunken log2 fold change” value turned out to be 2.9.

On to RRIRTRPPRLPRPRPRPKKYPRP, for which the “shrunken log2 fold change” value is -0.627.

In the case of RRIRFRPPRLPRPRPRPDCDPRP, the “shrunken log2 fold change” value is -0.147.

In the case of RRIRNRPPRLPRPRPRPKKLPRP, the “shrunken log2 fold change” value is -0.0729.

Consider RRIRTRPPRLPRPRPRPINDPRP, for which the “shrunken log2 fold change” value is -0.293.

Take RRIRDRPPRLPRPRPRPLKHPRP: the “shrunken log2 fold change” value was -0.927.

As to RRIRDRPPRLPRPRPRPMPNPRP, the “shrunken log2 fold change” value was -0.258.

In the case of RRIRPRPPRLPRPRPRPLNWPRP, the “shrunken log2 fold change” value was 0.0566.

Consider RRIRKRPPRLPRPRPRPENVPRP, for which the “shrunken log2 fold change” value was -0.00931.

As to RRIRGRPPRLPRPRPRPGMQPRP, the “shrunken log2 fold change” value stood at 1.15.

For the sequence RRIRERPPRLPRPRPRPVFWPRP, the “shrunken log2 fold change” value stood at 0.39.

Take RRIRVRPPRLPRPRPRPPNQPRP: the “shrunken log2 fold change” value is 0.184.

RRIRYRPPRLPRPRPRPKVPPRP: the “shrunken log2 fold change” value worked out at 0.0215.

As for RRIRPRPPRLPRPRPRPSWLPRP, the “shrunken log2 fold change” value was -0.0766.

Regarding RRIRHRPPRLPRPRPRPQEPPRP, the “shrunken log2 fold change” value was -0.136.

With RRIRGRPPRLPRPRPRPCAHPRP, the “shrunken log2 fold change” value turned out to be 0.251.

For RRIRKRPPRLPRPRPRPGNWPRP, the “shrunken log2 fold change” value amounted to 0.701.

Regarding RRIRDRPPRLPRPRPRPDPWPRP, the “shrunken log2 fold change” value came out at 0.295.

RRIRSRPPRLPRPRPRPIATPRP: the “shrunken log2 fold change” value was found to be 0.344.

On to RRIRCRPPRLPRPRPRPDKTPRP, for which the “shrunken log2 fold change” value was -0.0581.

In the case of RRIRSRPPRLPRPRPRPCNQPRP, the “shrunken log2 fold change” value was -0.391.

As for RRIRERPPRLPRPRPRPADWPRP, the “shrunken log2 fold change” value worked out at 0.349.

Take RRIRWRPPRLPRPRPRPSPCPRP: the “shrunken log2 fold change” value was -0.214.

Take RRIRKRPPRLPRPRPRPSYTPRP: the “shrunken log2 fold change” value is -0.0235.

Regarding RRIRKRPPRLPRPRPRPDNCPRP, the “shrunken log2 fold change” value is -0.0122.

Regarding RRIRTRPPRLPRPRPRPWPEPRP, the “shrunken log2 fold change” value was found to be 0.0147.

Regarding RRIRQRPPRLPRPRPRPSNWPRP, the “shrunken log2 fold change” value is -0.227.
